The assay concerns the target V3A3E3 PA conjugated to carboxytetramethylrhodamine. Kind of assay: FRET or BRET.

Turning to “V3A3E3 PA conjugated to fluorescein isothiocyanate (peptide)”, the FRET ratio was 0.6 to 0.7.

These data come from publication PMC8049983.
